# Assay results from paper PMC9293779, “Elucidation of binding preferences of YEATS domains to site-specific acetylated nucleosome core particles” (The Journal of Biological Chemistry, 2022).
# T1: H3K14ac (1–19) peptide (Homo sapiens)
# T1 chain: ARTKQTARKSTGGKAPRKQ
# T2: H3K4ac (1–19) peptide (Homo sapiens)
# T2 chain: ARTKQTARKSTGGKAPRKQ
# B1: AF9-YEATS domain (residues 1–138) for X-ray analysis and ITC, P42568 1-138 (protein)
# chain: MASSCAVQVKLELGHRAQVRKKPTVEGFTHDWMVFVRGPEHSNIQHFVEKVVFHLHESFPRPKRVCKDPPYKVEESGYAGFILPIEVYFKNKEEPRKVRFDYDLFLHLEGHPPVNHLRCEKLTFNNPTEDFRRKLLKA
# Tests used:
# Assay in all cases: ITC
# [1] = target: Unmodified H3 (1–19) (Homo sapiens); conditions: domain or fragment; chains chain; modification not given
# [2] = target: T1, H3K14ac (1–19) peptide (Homo sapiens); conditions: domain or fragment; chains chain; modification not given; acetyl-Lys14 (mature histone numbering; entry K15); terminal caps or added residues not given
# [3] = target: T2, H3K4ac (1–19) peptide (Homo sapiens); conditions: domain or fragment; chains chain; modification not given; acetyl-Lys4 (mature histone numbering; entry K5); terminal caps or added residues not given
binder,measurement,setting,value
B1,Kd,[1],> 1000 µM
same,Kd,[2],> 1000 µM
same,Kd,[3],320 µM
